# Measured values from paper PMC10611751 (2023).
# T1: Ankyrin-G 24 ANK repeats (residues 38-855) (UniProt O70511 38-855)
# T1 chain: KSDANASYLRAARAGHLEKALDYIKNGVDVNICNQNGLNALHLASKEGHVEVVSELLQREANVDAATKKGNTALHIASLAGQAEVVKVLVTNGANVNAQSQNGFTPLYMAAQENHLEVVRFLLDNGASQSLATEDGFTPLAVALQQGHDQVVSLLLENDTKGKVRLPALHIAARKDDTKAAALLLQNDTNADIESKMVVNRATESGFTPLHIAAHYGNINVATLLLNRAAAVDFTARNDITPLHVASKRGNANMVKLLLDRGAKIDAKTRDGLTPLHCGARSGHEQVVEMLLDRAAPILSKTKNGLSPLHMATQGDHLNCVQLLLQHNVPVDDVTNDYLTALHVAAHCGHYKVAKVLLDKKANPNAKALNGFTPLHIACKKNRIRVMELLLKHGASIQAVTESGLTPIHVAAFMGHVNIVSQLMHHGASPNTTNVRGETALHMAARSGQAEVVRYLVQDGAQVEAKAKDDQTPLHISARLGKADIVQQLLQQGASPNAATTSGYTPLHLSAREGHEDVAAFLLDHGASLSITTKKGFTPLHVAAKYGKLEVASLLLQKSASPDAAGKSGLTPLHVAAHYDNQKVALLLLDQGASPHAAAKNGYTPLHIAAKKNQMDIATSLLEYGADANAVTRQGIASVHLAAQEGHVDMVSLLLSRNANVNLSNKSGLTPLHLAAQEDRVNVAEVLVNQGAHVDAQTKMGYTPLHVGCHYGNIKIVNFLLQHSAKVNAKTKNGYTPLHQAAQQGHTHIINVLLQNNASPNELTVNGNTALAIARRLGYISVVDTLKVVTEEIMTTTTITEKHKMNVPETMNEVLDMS
# Legend:
# Test in all cases: ITC
# [1] = target: E-cadherin CTD site-3 to A (mouse, UniProt P09803 734-884, Y861A | Y863A | W867A)
# [2] = target: E-cadherin CTD site-1, 3 to A (mouse, UniProt P09803 734-884, Y755A | Y756A | Y757A | Y861A | Y863A | W867A)
# [3] = target: E-cadherin CTD site-1, 2, 3 to A (a total of 8 aromatic residue substitutions) (mouse, UniProt P09803 734-884, Y755A | Y756A | Y757A | Y829A | Y837A | Y861A | Y863A | W867A)
# [4] = target: E-cadherin CTD site-2, 3 to A (mouse, UniProt P09803 734-884, Y829A | Y837A | Y861A | Y863A | W867A)
# [5] = target: E-cadherin CTD site-2 to A (mouse, UniProt P09803 734-884, Y829A | Y837A)
# [6] = target: E-cadherin CTD site-1 to A (mouse, UniProt P09803 734-884, Y755A | Y756A | Y757A)
# [7] = target: E-cadherin CTD site-1, 2 to A (mouse, UniProt P09803 734-884, Y755A | Y756A | Y757A | Y829A | Y837A)
# [8] = target: T1, Ankyrin-G 24 ANK repeats (residues …)
Binder,Kd [1],Kd [2],Kd [3],Kd [4],Kd [5],Kd [6],Kd [7],Kd [8]
p120 catenin 324-938 (domain or fragment) MIGEEVPPDQYYWAPLAQHERGSLASLDSLRKGMPPPSNWRQPELPEVIAMLGFRLDAVKSNAAAYLQHLCYRNDKVKTDVRKLKGIPILVGLLDHPKKEVHLGACGALKNISFGRDQDNKIAIKNCDGVPALVRLLRKARDMDLTEVITGTLWNLSSHDSIKMEIVDHALHALTDEVIIPHSGWEREPNEDCKPRHIEWESVLTNTAGCLRNVSSERSEARRKLRECDGLVDALIFIVQAEIGQKDSDSKLVENCVCLLRNLSYQVHREIPQAERYQEALPTVANSTGPHAASCFGAKKGKDEWFSRGKKPTEDPANDTVDFPKRTSPARGYELLFQPEVVRIYISLLKESKTPAILEASAGAIQNLCAGRWTYGRYIRSALRQEKALSAIAELLTSEHERVVKAASGALRNLAVDARNKELIGKHAIPNLVKNLPGGQQNSSWNFSEDTVVSILNTINEVIAENLEAAKKLRETQGIEKLVLINKSGNRSEKEVRAAALVLQTIWGYKELRKPLEKEGWKKSDFQVNLNNASRSQSSHSYDDSTLPLIDRNQKSDKKPDREEIPMSNMGSNTKSLDNNYSTLNERGDHNRTLDRSGDLGDMEPLKGAPLMQKI,2900 nM,> 30000 nM,> 50000 nM,1800 nM,2800 nM,> 50000 nM,> 70000 nM,
full-length β-catenin 1-781 (natural protein) MATQADLMELDMAMEPDRKAAVSHWQQQSYLDSGIHSGATTTAPSLSGKGNPEEEDVDTSQVLYEWEQGFSQSFTQEQVADIDGQYAMTRAQRVRAAMFPETLDEGMQIPSTQFDAAHPTNVQRLAEPSQMLKHAVVNLINYQDDAELATRAIPELTKLLNDEDQVVVNKAAVMVHQLSKKEASRHAIMRSPQMVSAIVRTMQNTNDVETARCTAGTLHNLSHHREGLLAIFKSGGIPALVKMLGSPVDSVLFYAITTLHNLLLHQEGAKMAVRLAGGLQKMVALLNKTNVKFLAITTDCLQILAYGNQESKLIILASGGPQALVNIMRTYTYEKLLWTTSRVLKVLSVCSSNKPAIVEAGGMQALGLHLTDPSQRLVQNCLWTLRNLSDAATKQEGMEGLLGTLVQLLGSDDINVVTCAAGILSNLTCNNYKNKMMVCQVGGIEALVRTVLRAGDREDITEPAICALRHLTSRHQEAEMAQNAVRLHYGLPVVVKLLHPPSHWPLIKATVGLIRNLALCPANHAPLREQGAIPRLVQLLVRAHQDTQRRTSMGGTQQQFVEGVRMEEIVEGCTGALHILARDVHNRIVIRGLNTIPLFVQLLYSPIENIQRVAAGVLCELAQDKEAAEAIEAEGATAPLTELLHSRNEGVATYAAAVLFRMSEDKPQDYKKRLSVELTSSLFRTEPMAWNETADLGLDIGAQGEALGYRQDDPSYRSFHSGGYGQDALGMDPMMEHEMGGHHPGADYPVDGLPDLGHAQDLMDGLPPGDSNQLAWFDTDL,110 nM,98 nM,8100 nM,1400 nM,4800 nM,56 nM,3600 nM,
E-cadherin 776-884–β-catenin complex (protein) chain 1: not shown chain 2: MATQADLMELDMAMEPDRKAAVSHWQQQSYLDSGIHSGATTTAPSLSGKGNPEEEDVDTSQVLYEWEQGFSQSFTQEQVADIDGQYAMTRAQRVRAAMFPETLDEGMQIPSTQFDAAHPTNVQRLAEPSQMLKHAVVNLINYQDDAELATRAIPELTKLLNDEDQVVVNKAAVMVHQLSKKEASRHAIMRSPQMVSAIVRTMQNTNDVETARCTAGTLHNLSHHREGLLAIFKSGGIPALVKMLGSPVDSVLFYAITTLHNLLLHQEGAKMAVRLAGGLQKMVALLNKTNVKFLAITTDCLQILAYGNQESKLIILASGGPQALVNIMRTYTYEKLLWTTSRVLKVLSVCSSNKPAIVEAGGMQALGLHLTDPSQRLVQNCLWTLRNLSDAATKQEGMEGLLGTLVQLLGSDDINVVTCAAGILSNLTCNNYKNKMMVCQVGGIEALVRTVLRAGDREDITEPAICALRHLTSRHQEAEMAQNAVRLHYGLPVVVKLLHPPSHWPLIKATVGLIRNLALCPANHAPLREQGAIPRLVQLLVRAHQDTQRRTSMGGTQQQFVEGVRMEEIVEGCTGALHILARDVHNRIVIRGLNTIPLFVQLLYSPIENIQRVAAGVLCELAQDKEAAEAIEAEGATAPLTELLHSRNEGVATYAAAVLFRMSEDKPQDYKKRLSVELTSSLFRTEPMAWNETADLGLDIGAQGEALGYRQDDPSYRSFHSGGYGQDALGMDPMMEHEMGGHHPGADYPVDGLPDLGHAQDLMDGLPPGDSNQLAWFDTDL,,,,,,,,1200 nM
E-cadherin CTD–β-catenin complex (complex) chain 1: not shown chain 2: MATQADLMELDMAMEPDRKAAVSHWQQQSYLDSGIHSGATTTAPSLSGKGNPEEEDVDTSQVLYEWEQGFSQSFTQEQVADIDGQYAMTRAQRVRAAMFPETLDEGMQIPSTQFDAAHPTNVQRLAEPSQMLKHAVVNLINYQDDAELATRAIPELTKLLNDEDQVVVNKAAVMVHQLSKKEASRHAIMRSPQMVSAIVRTMQNTNDVETARCTAGTLHNLSHHREGLLAIFKSGGIPALVKMLGSPVDSVLFYAITTLHNLLLHQEGAKMAVRLAGGLQKMVALLNKTNVKFLAITTDCLQILAYGNQESKLIILASGGPQALVNIMRTYTYEKLLWTTSRVLKVLSVCSSNKPAIVEAGGMQALGLHLTDPSQRLVQNCLWTLRNLSDAATKQEGMEGLLGTLVQLLGSDDINVVTCAAGILSNLTCNNYKNKMMVCQVGGIEALVRTVLRAGDREDITEPAICALRHLTSRHQEAEMAQNAVRLHYGLPVVVKLLHPPSHWPLIKATVGLIRNLALCPANHAPLREQGAIPRLVQLLVRAHQDTQRRTSMGGTQQQFVEGVRMEEIVEGCTGALHILARDVHNRIVIRGLNTIPLFVQLLYSPIENIQRVAAGVLCELAQDKEAAEAIEAEGATAPLTELLHSRNEGVATYAAAVLFRMSEDKPQDYKKRLSVELTSSLFRTEPMAWNETADLGLDIGAQGEALGYRQDDPSYRSFHSGGYGQDALGMDPMMEHEMGGHHPGADYPVDGLPDLGHAQDLMDGLPPGDSNQLAWFDTDL,,,,,,,,600 nM
